{"source": "the supplement of paper PMC9170038"}
{"tested_on": "K4 kissing-loop RNA reporter", "experiment": "apparent KD of K4 kissing-loop reporter; higher = weaker reporter binding", "conditions": "Eterna round: R107; input ligand: none", "experimental": "(§1)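 RNA-MaP round R107: designed RNA switches with theophylline, tryptophan, arginine or FMN aptamers are transcribed on-chip within common flanks. They are titrated with a labelled K4 kissing-loop RNA reporter in RNA-MaP buffer (100 mM Tris pH 7.5, 80 mM KCl, 4 mM MgCl2), without ligand or with the indicated ligand. Median apparent KD per design.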", "units": {"apparent KD of K4 kissing-loop reporter": "nM"}}
{"sequence": "AGUACAGACACGGCCGCCACUCAGAAGAAGAUAGUAGUGAUGUUACUGAUGAUGAGAAUAAUAAAGAGGACCGGGUGUUGUGCAA [#09 K4 Tryptophan B Same State]", "apparent KD of K4 kissing-loop reporter": 125}
{"sequence": "CAUACGAAGCAGUGAUGUUGCUUAUGAGAAGGAGCGCACGAAAGUGCAGGUAGGUCGCUCAGCCAUGUGGACGAAAACGUCCACA [whbob_SS_Arginine_A_sa112]", "apparent KD of K4 kissing-loop reporter": 276}
{"sequence": "UUCUGCAUCUCGGCCGCCACUCACUAGUGAUGUUAGUAAGGAGCGACUAGACAUGUCCCGUUAUUGAGGACCGGGAGAGGCUCUU [#13 K4 Tryptophan B Exclusion]", "apparent KD of K4 kissing-loop reporter": 192}
{"sequence": "UGCAUCAGUGCCUUUGAUCUAUUCCUGGAUACCAGAUCCUACUUGAUCCCUUGGCAGCCAUACGGGAGUGAUGUUCCAUGUAUCC [theeternabot_exclusion_KL_Theo_A_43]", "apparent KD of K4 kissing-loop reporter": 209}
{"sequence": "AUAAUAUUGCGAGGAUAUCCUUCCCACGUCGAAGUACCGUGCUUGAUGGAGUGAUGUUCGAUCAGAGGAGAAGGCGCGGUGUUGU [Same State FMN B GF23]", "apparent KD of K4 kissing-loop reporter": 656}
{"sequence": "AACUCUCAGGCACCUGAGUGAUGUUCAGGCCGAGGACCGGUACGGCCGCCACUCGGGCCUGAGAGAGGUUAUCAAAGAUAGCCAA [Omei KL Tryp A SS A v2]", "apparent KD of K4 kissing-loop reporter": 528}
{"sequence": "AUGCAUCAGACUUGAUACGGUGAAAUAGCCCGAGGACCGGUACGGCCGCCACUCGGUCCAGUGAUGUUGGAUAAUUAAUCUAGGU [theeternabot_sameState_KL_Trp_A_34]", "apparent KD of K4 kissing-loop reporter": 297}
{"sequence": "GGGUGGCAGGCGGCCGCCACUCUGAGCACCCACUGAGUGAUGUUCGUGGCGUAAGACUGUUCGUAGAGGACCGGGUUUGUUGUUC [Same State Tryptophan B GF 23]", "apparent KD of K4 kissing-loop reporter": 214}
{"sequence": "UAAUGCAUGACGGCCGCCACUAGUACUGGAGUGAUGUUGUGGUACGGCGGCAGUAUAGGGUGGACUAGGACCGGGUCAUGCAUAU [KL-XTryp-B11 #analogue]", "apparent KD of K4 kissing-loop reporter": 597}
{"sequence": "AUUUUUUUGUCAGGAUAUUAGUGUUGGUUUGGUUUGUUAGUGAUGUUGAUAUUUGUUUUAUGUAUUUAAGAAGGGAUUUAGCUGU [ppdemullin]", "apparent KD of K4 kissing-loop reporter": 346}
{"sequence": "UGUCAUUGGUCGGCCGCCACUUCGUGUGGAGUGAUGUUUUGUAGAUUGUGUUGAAAGGUAUGGUGAAGGACCGGGACCGAUGACU [FiskerMod 21 - Jieux - Same State - Tryptophan B]", "apparent KD of K4 kissing-loop reporter": 1090}
{"sequence": "AGAUUCGACACGGCCGCCACUUCCGGUGGCUGGUGUCAUGGUGCGCGUGAGUGAUGUUUAUGUGGAAGGACCGGGUGUUGAGUCU [whbob_Ex_Tryp_B_w41]", "apparent KD of K4 kissing-loop reporter": 730}
{"sequence": "GAUUCCCAAGCGGCCGCCACUUAUAGUGAUGUUAUAGGGACUGCGGAUCAGGACAAUCAUACAUAAAGGACCGGGCUAUUCUGAC [theeternabot_exclusion_KL_Trp_B_1]", "apparent KD of K4 kissing-loop reporter": 305}
{"sequence": "CCUAGUGAUGUUAGGUCGUGCUCCUAUGAUACCAGCGUAGUCACUCGCCCUUGGCAGCAUUCCUUAUAAGGCGGUCGGGCGCGGU [theeternabot_sameState_KL_Theo_A_34]", "apparent KD of K4 kissing-loop reporter": 193}
{"sequence": "AGUGAUGUUUUUUUUAAGAGUGAUGUUUUUCGAGGACCGGUACGGCCGCCACUCGAGUGAUGAGUGCGGUGUUGUGAUGUUUAGU [ewmullin]", "apparent KD of K4 kissing-loop reporter": 530}
{"sequence": "UCCUAUACCCUUCCCGGACGCCGUGGAGAUACCAGCCACGUAGCGGGCCCUUGGCAGCUCGAGUGAUGUUCGAGAUCGUCAGGAU [Veteve]", "apparent KD of K4 kissing-loop reporter": 127}
{"tested_on": "K4 kissing-loop RNA reporter", "experiment": "apparent KD of K4 kissing-loop reporter; higher = weaker reporter binding", "conditions": "Eterna round: R107; input ligand: theophylline 20 uM", "experimental": "as §1", "units": {"apparent KD of K4 kissing-loop reporter": "nM"}}
{"sequence": "CGCCGUAAGGCGGUCGCUCCCACUCCGGAAGGAGCGCCCGCAAGGGCAGGUAGGUCGCCGGAGUGAUGUUCCGGUGGAGGGACCG [#2 Exclusion - Arginine A Attempt #7 (Inspired by Omei)]", "apparent KD of K4 kissing-loop reporter": 216}
{"sequence": "UUAGCUCUAUAGAGCAAGAGGUCAACUGAUACCAGAGGCUAUAGCCUCCCUUGGCAGCGGAACGAGUGAUGUUCGAGACCUCAUU [AK6 SS Theophylline A]", "apparent KD of K4 kissing-loop reporter": 750}
{"sequence": "AUAAAUUUGUAGUGAUGUUGCAAGUUAGUCAAGGAUAUCAGGAAACUGAGAAGGUGAUAUCUCCUUUACUUGCAACUAGGAGGAG [KL-SSFMN-A11]", "apparent KD of K4 kissing-loop reporter": 90.8}
{"sequence": "GUGCGGUGGAGGUUACCGCUACUCUGAGAAGGAGCGCAGAUGACUGCAGGUAGGUCGCUUAGAGCUUGCAGUGAUGUUGCAAGUU [Anquatbiat]", "apparent KD of K4 kissing-loop reporter": 132}
{"sequence": "GGAGGUUGGUGCGAUACCAGACCUGCAGUGAUGUUGCGCCAAAGUGAGUGAUGUUCACCGGUCCCUUGGCAGCGCGUCCCUUUAG [Same State Theophylline B GF 15]", "apparent KD of K4 kissing-loop reporter": 707}
{"sequence": "CGGUUAUAGCAGGAUACCAGUACCCAUUAUGUACGUUUAUAGUAGAGUGAUGUUCUAAAGUACCCUUGGCAGCUUCCCGUGACCC [#23 K4 Theophylline B Exclusion]", "apparent KD of K4 kissing-loop reporter": 265}
{"sequence": "UUAGGAGUGGGAGGAUAUCCUAAUGUGGGUGAUGUUAGCGAUGUUGAAAGUGUAGUGAUGUUGUGCGGAGAAGGUCCAGUGUUGA [BDazzled - #12 - Exc. FMN B]", "apparent KD of K4 kissing-loop reporter": 269}
{"sequence": "GGGAGAAGUGGUGUUGAUUAAGAAGCGGAAGGAGCGCCGAAGAAGGCAGGUAGGUCGCCGAAAUAUAGUGAUGUUAUAUAAAGGG [ExArg.B]", "apparent KD of K4 kissing-loop reporter": 218}
{"sequence": "GGGUCUGUCGGAAGGAGCGCACUAUGGAGUGAUGUUCCAUGACCGCACAGCUUGCGGUCAGUGCAGGUAGGUCGCCGAUAGCUUU [Usquso]", "apparent KD of K4 kissing-loop reporter": 286}
{"sequence": "AUUUGUUACCUUAUAGGAGUGAUGUUCUUGCGAGGACCGGUACGGCCGCCACUCGCGCUGGCGCCUAGCCUCGGACCGUUAAUUC [theeternabot_exclusion_KL_Trp_A_25]", "apparent KD of K4 kissing-loop reporter": 497}
{"sequence": "CCUUUCAGUUACGAUACCAGUCUAAUAUAUUUGAUCAAUACCCUCGCCGAGUGAUGUUCGGACCCUUGGCAGCGUCUGGGACAGG [gbbymullin]", "apparent KD of K4 kissing-loop reporter": 418}
{"sequence": "CGUGCCCAGCCGGAUACCAGUGACCCGCUGGGAACCGCGGGCCCAGAGUGAUGUUCGGGACACCCUUGGCAGCCGCCUGGGCGGG [#2 Same State - Theophylline B Attempt #15 (HarryS)]", "apparent KD of K4 kissing-loop reporter": 512}
{"sequence": "UGAGGAGAAUAUGAUACCAGCAGAGAGAGAGAGGAAGUAUAGUGAUGUUAUAUGAGAUAAUGCCCUUGGCAGCAUAAGAAGAAGG [#19 K4 Theophylline B Same State]", "apparent KD of K4 kissing-loop reporter": 178}
{"sequence": "UUUAUUAAGACGGCCGCCACUGAUUCAUAGUGAUGUUAUGAUAUAAUUUUAGUGAUAUGCAUUAGCAGGACCGGGUCAAUUAUUA [JR_ExcTryptoB_Sub017]", "apparent KD of K4 kissing-loop reporter": 142}
{"sequence": "AAAAUAAAUAGCAGUCACGGAGUGAUGUUCCGAGGACCGGUACGGCCGCCACUCGACCAUCAUAAGAUGGAAUGGCGAGACUGCA [#SwitchBubble 21 #K4Early]", "apparent KD of K4 kissing-loop reporter": 138}
{"sequence": "AGUACAGACACGGCCGCCACUCAGAAGAAGAUAGUAGUGAUGUUACUGAUGAUGAGAAUAAUAAAGAGGACCGGGUGUUGUGCAA [#09 K4 Tryptophan B Same State]", "apparent KD of K4 kissing-loop reporter": 113}
{"sequence": "CAUACGAAGCAGUGAUGUUGCUUAUGAGAAGGAGCGCACGAAAGUGCAGGUAGGUCGCUCAGCCAUGUGGACGAAAACGUCCACA [whbob_SS_Arginine_A_sa112]", "apparent KD of K4 kissing-loop reporter": 265}
{"sequence": "UUCUGCAUCUCGGCCGCCACUCACUAGUGAUGUUAGUAAGGAGCGACUAGACAUGUCCCGUUAUUGAGGACCGGGAGAGGCUCUU [#13 K4 Tryptophan B Exclusion]", "apparent KD of K4 kissing-loop reporter": 162}
{"sequence": "UGCAUCAGUGCCUUUGAUCUAUUCCUGGAUACCAGAUCCUACUUGAUCCCUUGGCAGCCAUACGGGAGUGAUGUUCCAUGUAUCC [theeternabot_exclusion_KL_Theo_A_43]", "apparent KD of K4 kissing-loop reporter": 285}
{"sequence": "AUAAUAUUGCGAGGAUAUCCUUCCCACGUCGAAGUACCGUGCUUGAUGGAGUGAUGUUCGAUCAGAGGAGAAGGCGCGGUGUUGU [Same State FMN B GF23]", "apparent KD of K4 kissing-loop reporter": 611}
{"sequence": "AACUCUCAGGCACCUGAGUGAUGUUCAGGCCGAGGACCGGUACGGCCGCCACUCGGGCCUGAGAGAGGUUAUCAAAGAUAGCCAA [Omei KL Tryp A SS A v2]", "apparent KD of K4 kissing-loop reporter": 277}
{"sequence": "AUGCAUCAGACUUGAUACGGUGAAAUAGCCCGAGGACCGGUACGGCCGCCACUCGGUCCAGUGAUGUUGGAUAAUUAAUCUAGGU [theeternabot_sameState_KL_Trp_A_34]", "apparent KD of K4 kissing-loop reporter": 294}
{"sequence": "GGGUGGCAGGCGGCCGCCACUCUGAGCACCCACUGAGUGAUGUUCGUGGCGUAAGACUGUUCGUAGAGGACCGGGUUUGUUGUUC [Same State Tryptophan B GF 23]", "apparent KD of K4 kissing-loop reporter": 306}
